Here are results for 2 molecules from publication PMC5264503, “Structural and biophysical analysis of nuclease protein antibiotics” (Biochemical Journal, 2016).

The target in test [1] is wild-type ColE9 (colicin E9) (E. coli) (UniProt P09883). Description: stopped-flow fluorescence; wild-type ColE9 under the same conditions (PBS pH 7.4, 25 °C); data not shown.
In test [2] the target is pyocin S2 (P. aeruginosa, UniProt Q06584 1-689). Briefly: SAXS. The following applies: both partners purified.
Chain of pyocin S2 (Q06584 whole entry): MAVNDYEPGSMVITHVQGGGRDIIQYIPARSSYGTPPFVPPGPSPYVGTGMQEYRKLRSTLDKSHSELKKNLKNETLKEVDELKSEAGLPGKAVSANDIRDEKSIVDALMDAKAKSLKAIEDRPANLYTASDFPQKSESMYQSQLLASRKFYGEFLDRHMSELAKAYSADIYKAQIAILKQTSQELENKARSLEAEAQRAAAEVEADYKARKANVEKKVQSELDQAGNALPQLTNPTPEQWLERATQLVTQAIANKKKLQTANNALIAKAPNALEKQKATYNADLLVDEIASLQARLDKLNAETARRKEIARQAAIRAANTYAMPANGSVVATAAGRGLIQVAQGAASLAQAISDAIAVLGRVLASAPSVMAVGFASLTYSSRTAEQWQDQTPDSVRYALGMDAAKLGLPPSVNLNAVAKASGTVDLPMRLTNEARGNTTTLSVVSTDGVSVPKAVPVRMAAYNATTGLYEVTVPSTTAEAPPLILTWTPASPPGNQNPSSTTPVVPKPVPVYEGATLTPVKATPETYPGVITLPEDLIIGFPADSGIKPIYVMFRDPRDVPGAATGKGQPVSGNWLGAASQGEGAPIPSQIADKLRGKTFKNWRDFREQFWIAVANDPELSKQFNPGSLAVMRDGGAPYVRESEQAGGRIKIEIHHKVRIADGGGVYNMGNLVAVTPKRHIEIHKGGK

Chain of wild-type ColE9 (colicin E9) (E. coli) (P09883 whole entry): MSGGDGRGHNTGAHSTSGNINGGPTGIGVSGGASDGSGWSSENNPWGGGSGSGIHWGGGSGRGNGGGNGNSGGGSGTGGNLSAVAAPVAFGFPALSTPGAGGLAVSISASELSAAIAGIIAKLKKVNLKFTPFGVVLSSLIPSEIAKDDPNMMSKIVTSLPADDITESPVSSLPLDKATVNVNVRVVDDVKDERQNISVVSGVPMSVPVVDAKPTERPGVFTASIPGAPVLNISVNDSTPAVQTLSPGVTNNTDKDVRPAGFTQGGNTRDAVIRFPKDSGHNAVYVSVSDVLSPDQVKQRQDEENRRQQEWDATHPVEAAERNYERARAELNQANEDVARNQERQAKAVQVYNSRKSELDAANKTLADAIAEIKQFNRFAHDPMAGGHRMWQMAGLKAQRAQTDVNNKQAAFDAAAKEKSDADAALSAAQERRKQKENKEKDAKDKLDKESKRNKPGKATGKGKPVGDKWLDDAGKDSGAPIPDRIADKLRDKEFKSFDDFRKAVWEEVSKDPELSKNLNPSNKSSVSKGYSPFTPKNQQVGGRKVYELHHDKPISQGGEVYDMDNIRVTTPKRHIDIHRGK

In test [1], “Im9 (immunity protein 9) (from UniProt P13479 1-86) (natural protein)” yielded a k1 (bimolecular collision) of 1.28e+08 M⁻¹ s⁻¹ and a k2 app (conformational change) of 2.76 s⁻¹.

B1: ImS2 (pyocin S2 immunity protein) (natural protein)
chain: MKSKISEYTEKEFLEFVKDIYTNNKKKFPTEESHIQAVLEFKKLTEHPSGSDLLYYPNENREDSPAGVVKEVKEWRASKGLPGFKAG
notes: not shown: His6, C-terminal, kept
Take B1: in test [2], the binding result is given as “binds”.
